Source: US9234036B2, “Modulation of activity of proneurotrophins” (H. Lundbeck A/S, priority 2006, dated 2016)

Tests used:
[1] = biological target: T1, pro-dom-NGF (Homo sapiens, UniProt P01138, A35V); test: SPR direct binding of sortilin peptides to immobilized pro-dom-NGF; conditions: concentration series of peptide, FIG. 18
T1 construct: pro-dom-NGF (residues Glu^1-Arg^102); made in house; host or cells: E. coli BL21/DE3
T1 sequence (P01138 19-121 A35V): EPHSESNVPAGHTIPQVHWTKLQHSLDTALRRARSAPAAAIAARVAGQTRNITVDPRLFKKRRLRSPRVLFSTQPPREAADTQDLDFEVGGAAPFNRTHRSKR
Excerpt: (§1) FIG. 18: Surface plasmon resonance binding analysis of sortilin peptides to pro-dom-NGF and -BDNF. The direct interaction between sortilin peptides (as identified by SPOT analysis) and the pro-domains of NGF and BDNF was verified by surface plasmon resonance analysis using immobilized pro-dom-NGF and -BDNF. […] The numbering in this figure refers to the mature part of Sortilin.
A biosensor chip from Biacore (CM5, cat. no. BR-1000-14) was activated using the NHS/EDC method as described by supplier followed by coating with Sortilin to a protein densitiy of 79 fmol/mm2, and used for affinity measurements of the recombinant pro-domains of NGF and BDNF. Regeneration of the flow cell after each cycle of ligand binding experiment was performed by two 10 uL pulses of regeneration buffer (10 mM glycine-HCl, pH 4.0, 500 mM NaCl, 20 mM EDTA, and 0.005% Tween-20) and a single injection of 0.001% SDS. Fitting of sensorgrams for affinity estimations was performed using the Biaevaluation version 3.1. Following similar protocols, immobilization of pro-dom-NGF or pro-dom-BDNF was also performed on a CM5 biosensor chip using the NHS/EDC coupling kit according to manufactures instructions (Biacore, Sweden), giving similar surface densitites of immobilized protein (˜300 fmol/mm2). […]

[2] = biological target: T2, pro-dom-BDNF (Homo sapiens, UniProt P23560); test: SPR direct binding of sortilin peptides to immobilized pro-dom-BDNF; conditions: for direct interaction with immobilized pro-dom-BDNF: concentration series of peptide, FIG. 18; for affinity towards pro-dom-BDNF compared with pro-dom-NGF: single peptide concentration, identical amounts of immobilized pro-dom-NGF and -BDNF
T2 construct: pro-dom-BDNF (residues Ala^1-Arg^110); made in house; host or cells: E. coli BL21/DE3
T2 sequence (P23560 19-128 limits assumed): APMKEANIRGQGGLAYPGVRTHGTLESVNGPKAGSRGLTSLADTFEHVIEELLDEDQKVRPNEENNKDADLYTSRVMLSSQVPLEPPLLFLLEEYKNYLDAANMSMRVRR
Excerpt: as §1
(§2) A biosensor chip from Biacore (CM5, cat. no. BR-1000-14) was activated using the NHS/EDC method as described by supplier followed by coating with Sortilin to a protein densitiy of 79 fmol/mm2, and used for affinity measurements of the recombinant pro-domains of NGF and BDNF. Regeneration of the flow cell after each cycle of ligand binding experiment was performed by two 10 uL pulses of regeneration buffer (10 mM glycine-HCl, pH 4.0, 500 mM NaCl, 20 mM EDTA, and 0.005% Tween-20) and a single injection of 0.001% SDS. Fitting of sensorgrams for affinity estimations was performed using the Biaevaluation version 3.1. Following similar protocols, immobilization of pro-dom-NGF or pro-dom-BDNF was also performed on a CM5 biosensor chip using the NHS/EDC coupling kit according to manufactures instructions (Biacore, Sweden), giving similar surface densitites of immobilized protein (˜300 fmol/mm2). […] This chip was subsequent used to examine the binding of 390 nM wild-type Sortilin domain in CaHBS buffer at a flow of 5 uL/min, which in the absence of any competing peptide gave a ˜300 RU signal.

[3] = biological target: T3, Sortilin binding to immobilized pro-dom-BDNF (Homo sapiens, UniProt P23560); test: SPR competition: Sortilin binding to immobilized pro-dom-BDNF in presence of sortilin peptide
T3 construct: pro-dom-BDNF (residues Ala^1-Arg^110); made in house; host or cells: pro-dom-BDNF: E. coli BL21/DE3; Sortilin: EBNA293 cells
T3 sequence (P23560 19-128 limits assumed): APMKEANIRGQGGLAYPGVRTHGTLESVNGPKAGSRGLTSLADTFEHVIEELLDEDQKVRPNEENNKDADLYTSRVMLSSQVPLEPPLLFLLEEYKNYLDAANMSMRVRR
Method: FIG. 19: Surface plasmon resonance analysis of competition studies by the sortilin peptides.
as §2

[4] = biological target: T4, p75-IgG-Fc chimeric protein (Homo sapiens, UniProt P08138); test: Surface plasmon resonance (BIAcore) binding to immobilized p75-IgG-Fc; conditions: 91.5 fmol/mm^2 immobilized p75-IgG-Fc; calculated from on and off rates
T4 construct: purchased R&D systems (Oxon, UK)
Method: (§3) FIG. 2: Characterization of NGF binding to p75, TrkA, and Sortilin as measured by surface plasmon resonance analysis (BIAcore). Binding of 50-500 nM NGF was measured to 91.5 fmol/mm^2 immobilized p75-IgG-Fc chimeric protein (upper panel), to 66 fmol/mm^2 immobilized TrkA-IgG-Fc (middle panel), and to 51 fmol/mm^2 purified Sortilin extracellular domain (lower panel). The on and off rates—100 to 600 seconds and 600 to 1000 seconds, respectively—were recorded and the Kd values for NGF binding were calculated to ˜1 nM for p75, ˜2 nM for TrkA, and ˜8 nM for Sortilin. […]
(§4) FIG. 3: Characterization of proNGF binding to p75, TrkA, and Sortilin as measured by surface plasmon resonance analysis (Biacore). Binding of 25-500 nM proNGF was measured to 91.5 fmol/mm^2 immobilized p75-IgG-Fc chimeric protein (upper panel), to 66 fmol/mm^2 immobilized TrkA-IgG-Fc (middle panel), and to 51 fmol/mm^2 purified Sortilin extracellular domain (lower panel). […]
(§5) FIG. 4: Characterization of binding of the proNGF propeptide to p75, TrkA, and Sortilin as measured by surface plasmon resonance analysis (Biacore). Binding of 25-500 nM propeptide was measured to 91.5 fmol/mm^2 immobilized p75-IgG-Fc chimeric protein (upper panel), to 66 fmol/mm^2 immobilized TrkA-IgG-Fc (middle panel), and to 51 fmol/mm^2 purified Sortilin extracellular domain (lower panel). […]

[5] = biological target: T5, proNGF binding to immobilized Sortilin (Homo sapiens, UniProt Q99523); test: Inhibition of proNGF binding to immobilized Sortilin (Biacore); conditions: 5 μM inhibitor prebound, then coinjection; 51 fmol/mm^2 Sortilin (FIG. 6)
T5 construct: 51 fmol/mm^2 purified Sortilin extracellular domain; made in house; host or cells: Sortilin: stably transfected CHO cells; proNGF: E. coli
T5 sequence (Q99523 78-755 limits assumed): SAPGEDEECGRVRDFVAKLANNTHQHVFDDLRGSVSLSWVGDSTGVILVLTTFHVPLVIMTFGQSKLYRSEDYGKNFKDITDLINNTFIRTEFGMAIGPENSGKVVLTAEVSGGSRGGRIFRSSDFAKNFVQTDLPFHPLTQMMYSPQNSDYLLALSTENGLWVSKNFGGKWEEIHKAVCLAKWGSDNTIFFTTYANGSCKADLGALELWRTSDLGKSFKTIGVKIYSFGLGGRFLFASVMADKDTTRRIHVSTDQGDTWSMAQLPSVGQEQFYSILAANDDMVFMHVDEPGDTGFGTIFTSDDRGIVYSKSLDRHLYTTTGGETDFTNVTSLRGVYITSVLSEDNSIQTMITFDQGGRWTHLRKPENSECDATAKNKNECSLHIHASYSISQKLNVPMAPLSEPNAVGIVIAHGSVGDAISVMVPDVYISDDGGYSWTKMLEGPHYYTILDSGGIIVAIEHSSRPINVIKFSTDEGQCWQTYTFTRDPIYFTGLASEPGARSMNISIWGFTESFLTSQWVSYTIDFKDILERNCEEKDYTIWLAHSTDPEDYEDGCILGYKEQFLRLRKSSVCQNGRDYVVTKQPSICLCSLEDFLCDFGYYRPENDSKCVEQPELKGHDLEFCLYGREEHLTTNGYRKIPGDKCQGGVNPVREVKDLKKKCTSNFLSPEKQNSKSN

[6] = biological target: T6, TrkA-IgG-Fc (Homo sapiens, UniProt P04629); test: Surface plasmon resonance (BIAcore) binding to immobilized TrkA-IgG-Fc; conditions: 66 fmol/mm^2 immobilized TrkA-IgG-Fc; calculated from on and off rates
T6 construct: purchased R&D systems (Oxon, UK)
Method: as §3, §4, §5

[7] = biological target: T7, Sortilin extracellular domain (Homo sapiens, UniProt Q99523); test: Surface plasmon resonance (BIAcore) binding to immobilized purified Sortilin extracellular domain; conditions: 51 fmol/mm^2 purified Sortilin extracellular domain; calculated from on and off rates
T7 construct: 51 fmol/mm^2 purified Sortilin extracellular domain; made in house; host or cells: stably transfected CHO cells
T7 sequence (Q99523 78-755 limits assumed): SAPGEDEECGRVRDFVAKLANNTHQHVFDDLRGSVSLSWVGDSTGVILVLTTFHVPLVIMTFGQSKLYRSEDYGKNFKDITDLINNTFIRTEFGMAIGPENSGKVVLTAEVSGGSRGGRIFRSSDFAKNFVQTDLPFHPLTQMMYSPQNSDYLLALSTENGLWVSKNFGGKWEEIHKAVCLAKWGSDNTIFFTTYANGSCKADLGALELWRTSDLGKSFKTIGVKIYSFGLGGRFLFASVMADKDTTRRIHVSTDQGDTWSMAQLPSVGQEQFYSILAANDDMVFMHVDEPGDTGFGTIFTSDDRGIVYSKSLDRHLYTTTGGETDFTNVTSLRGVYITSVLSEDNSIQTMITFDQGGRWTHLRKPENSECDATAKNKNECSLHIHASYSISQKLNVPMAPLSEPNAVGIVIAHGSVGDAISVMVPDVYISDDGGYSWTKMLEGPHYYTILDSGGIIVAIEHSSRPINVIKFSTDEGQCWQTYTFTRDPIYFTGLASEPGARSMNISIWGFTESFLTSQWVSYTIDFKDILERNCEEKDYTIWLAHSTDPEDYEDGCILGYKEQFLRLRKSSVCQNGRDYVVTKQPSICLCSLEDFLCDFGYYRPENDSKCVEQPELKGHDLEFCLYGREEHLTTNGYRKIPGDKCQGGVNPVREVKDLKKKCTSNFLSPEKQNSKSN
Method: as §3, §4, §5

T4 sequence (P08138 with tags, fused parts or gaps limits assumed): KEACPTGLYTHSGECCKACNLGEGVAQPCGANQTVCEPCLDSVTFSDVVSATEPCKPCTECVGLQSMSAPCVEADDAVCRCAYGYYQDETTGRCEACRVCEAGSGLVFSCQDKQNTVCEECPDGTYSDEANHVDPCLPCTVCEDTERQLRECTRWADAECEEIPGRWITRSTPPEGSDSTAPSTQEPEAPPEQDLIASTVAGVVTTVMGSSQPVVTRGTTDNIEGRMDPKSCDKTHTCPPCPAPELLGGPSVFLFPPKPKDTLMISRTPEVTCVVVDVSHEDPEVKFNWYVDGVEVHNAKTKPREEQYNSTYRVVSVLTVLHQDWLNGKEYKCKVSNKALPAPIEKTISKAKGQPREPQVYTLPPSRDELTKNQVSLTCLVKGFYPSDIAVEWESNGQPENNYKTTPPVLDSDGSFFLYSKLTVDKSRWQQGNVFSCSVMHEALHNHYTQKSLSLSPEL
T6 sequence (P04629 34-407 isoform P04629-2 limits assumed): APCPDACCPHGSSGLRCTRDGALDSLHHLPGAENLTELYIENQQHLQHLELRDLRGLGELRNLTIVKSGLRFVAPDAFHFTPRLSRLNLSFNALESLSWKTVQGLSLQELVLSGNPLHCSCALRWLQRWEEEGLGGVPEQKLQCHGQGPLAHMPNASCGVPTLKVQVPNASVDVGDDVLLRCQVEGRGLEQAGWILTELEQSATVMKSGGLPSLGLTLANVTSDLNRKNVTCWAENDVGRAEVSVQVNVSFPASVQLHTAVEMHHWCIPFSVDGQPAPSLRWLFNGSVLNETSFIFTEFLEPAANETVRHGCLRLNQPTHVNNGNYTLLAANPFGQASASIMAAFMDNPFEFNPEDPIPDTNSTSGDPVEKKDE

For RIFRSSDFAKNF (listed as Homo Sapiens), the “direct interaction with immobilized pro-dom-NGF” value [1] was “direct binding”, the “direct interaction with immobilized pro-dom-BDNF” value [2] was “direct binding” and the “affinity towards pro-dom-BDNF compared with pro-dom-NGF” value [2] was “higher affinity of the peptides towards BDNF than NGF”.

For “RSSDFAKNFVQTDLPF (listed as Homo Sapiens)”, the “direct interaction with immobilized pro-dom-NGF” value [1] was “direct binding”, the “direct interaction with immobilized pro-dom-BDNF” value [2] was “direct binding” and the “affinity towards pro-dom-BDNF compared with pro-dom-NGF” value [2] was “higher affinity of the peptides towards BDNF than NGF”. For the same molecule, the “inhibition of Sortilin binding to immobilized pro-dom-BDNF” value ([3]; 300 uM peptide, 390 nM wild-type Sortilin domain, CaHBS buffer) was ~66% and the “competition of sortilin binding to immobilized pro-dom-BDNF” value ([3]; FIG. 19, + peptide) was “significantly inhibited”.

“proNGF: Human recombinant proNGF produced and purified in E. coli” gave a Kd [4] of ~12 nM.

B1: proNGF propeptide: human NGF-propeptide expressed in E. coli (protein)
chain: EPHSESNVPAGHTIPQVHWTKLQHSLDTALRRARSAPAAAIAARVAGQTRNITVDPRLFKKRRLRSPRVLFSTQPPREAADTQDLDFEVGGAAPFNRTHRSKR
In the case of B1, the “inhibition of binding of 200 nM proNGF to immobilized Sortilin” value [5] is reported as ~85%, the “Kd for binding to TrkA” value [6] is reported as “no detectable binding” and the “Kd for binding to p75” value [4] is reported as “no detectable binding”. For the same molecule, the Kd [7] was ~8 nM.
